From patent publication USRE43497

Assays:
Assay in all cases: cell-based or functional assay
[1] = biological target: SV40-AD
[2] = biological target: GAL4-AD (UniProt P04386)
[3] = biological target: Jab1-AD (GAL4 activation domain fusion with human p38^Jab1 amino acids 20-335) (human) (UniProt Q92905)
Jab1-AD (GAL4 activation domain fusion with human p38^Jab1 amino acids 20-335) (human), sequence (Q92905 20-334 limits assumed): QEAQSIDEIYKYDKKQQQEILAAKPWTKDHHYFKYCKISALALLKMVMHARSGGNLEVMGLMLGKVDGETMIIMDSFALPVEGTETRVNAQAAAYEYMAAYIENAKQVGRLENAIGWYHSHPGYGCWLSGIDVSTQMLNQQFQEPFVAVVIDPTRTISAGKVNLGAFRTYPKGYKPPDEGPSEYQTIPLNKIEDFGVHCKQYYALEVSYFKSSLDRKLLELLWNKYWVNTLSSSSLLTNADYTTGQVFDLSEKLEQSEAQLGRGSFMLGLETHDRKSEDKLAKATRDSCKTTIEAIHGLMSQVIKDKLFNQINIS

GAL4-AD, sequence (P04386 768-881 limits assumed): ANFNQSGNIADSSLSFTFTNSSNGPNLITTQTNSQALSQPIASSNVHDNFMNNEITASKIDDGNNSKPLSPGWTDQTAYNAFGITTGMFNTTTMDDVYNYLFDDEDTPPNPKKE

Substance: p53-BD
- beta-galactosidase activity, liquid media assay (yeast two-hybrid) [1]: 99 Miller units

Substance: GAL4-BD (from UniProt P04386 1-147)
- beta-galactosidase activity, liquid media assay (yeast two-hybrid) [2]: 0.1 Miller units
- beta-galactosidase activity, liquid media assay (yeast two-hybrid) [3]: 0.3 Miller units
